Reference: patent publication US4254225A, “Novel neutral glucoamylase and method for its production” (priority 1978, dated 1981)

How the values were obtained:
[1] = Relationship between reaction pH and enzymatic activity (optimum pH); type: biochemical; conditions: values marked with an asterisk (own)
Procedure: (§1) A 0.5-ml aliquot of a suitably diluted enzyme solution was added to 0.5 ml of a 2% solution of a spray-dried maltodextrin (D.E. about 10) in 0.1 M acetate buffer solution (pH 6.0) and this was incubated at 60° C. for precisely 10 minutes. The enzyme reaction was then stopped by heating the mixture for 5 minutes in a boiling water bath. The amount of dextrose produced was determined by the glucose oxidase method. The amount of enzyme producing 1 micromole of dextrose per minute was defined as 1 unit.

[2] = type: biochemical; conditions: values marked with an asterisk (own)
[3] = Substrate specificity: reaction rate on various substrates at 1% concentration; type: biochemical
Procedure: ^a The enzymatic activities of each glucoamylase were determined with
the substrates present at a 1% concentration; each enzyme' s activity in
relation to dextrin was assigned the value 100, and the activities on the
other substrates are presented as relative
as §1

[4] = Saccharification of about 30% starch hydrolyzate to dextrose; type: biochemical; conditions: same substrate concentration as Example 3; pH 4.3 at 60° C.

B1: Aspergillus niger Glucoamylase: conventional glucoamylase from Aspergillus niger, available from Enzyme Development Corporation (protein, UniProt P69328 25-640, looked up)
Glucoamylase: ATLDSWLSNEATVARTAILNNIGADGAWVSGADSGIVVASPSTDNPDYFYTWTRDSGLVLKTLVDLFRNGDTSLLSTIENYISAQAIVQGISNPSGDLSSGAGLGEPKFNVDETAYTGSWGRPQRDGPALRATAMIGFGQWLLDNGYTSTATDIVWPLVRNDLSYVAQYWNQTGYDLWEEVNGSSFFTIAVQHRALVEGSAFATAVGSSCSWCDSQAPEILCYLQSFWTGSFILANFDSSRSGKDANTLLGSIHTFDPEAACDDSTFQPCSPRALANHKEVVDSFRSIYTLNDGLSDSEAVAVGRYPEDTYYNGNPWFLCTLAAAEQLYDALYQWDKQGSLEVTDVSLDFFKALYSDAATGTYSSSSSTYSSIVDAVKTFADGFVSIVETHAASNGSMSEQYDKSDGEQLSARDLTWSYAALLTANNRRNSVVPASWGETSASSVPGTCAATSAIGTYSSVTVTSWPSIVATGGTTTTATPTGSGSVTSTSKTTATASKTSTSTSSTSCTTPTAVAVTFDLTATTTYGENIYLVGSISQLGDWETSDGIALSADKYTSSDPLWYVTVTLPAGESFEYKFIRIESDDSVEWESDPNREYTVPQACGTSTATVTDTWR
Optimum pH [1]: 4.5
Optimum Temp. [2]: 70 °C
Reaction Rate ([3]; substrate Amylpectin, relative to dextrin = 100): 113
Reaction Rate ([3]; substrate Dextrin (D.E. 10), relative, activity on dextrin assigned 100): 100
Reaction Rate ([3]; substrate Glycogen, relative to dextrin = 100): 100
Reaction Rate ([3]; substrate Maltohexaose, relative to dextrin = 100): 100
Reaction Rate ([3]; substrate Maltose, relative to dextrin = 100): 26
Reaction Rate ([3]; substrate Maltotriose, relative to dextrin = 100): 12
Reaction Rate ([3]; substrate Panose, relative to dextrin = 100): 47
Reaction Rate ([3]; substrate Pullulan, relative to dextrin = 100): 2
Reaction Rate ([3]; substrate Soluble Starch, relative to dextrin = 100): 95
dextrose yield [4]: 96.5%
